Test results taken from patent US20180362629A1 (ZOETIS BELGIUM S A, published 2018).
Where two headings read alike, the source gives them in different places.

Key:
[1] = target: T1, recombinant canine β NGF (canine, UniProt Q29074 110-229 (pig entry)); assay: SPR (Biacore T100), antibody captured on goat anti-canine IgG, canine NGF injected
T1 construct: also called canine NGF
T1 chain: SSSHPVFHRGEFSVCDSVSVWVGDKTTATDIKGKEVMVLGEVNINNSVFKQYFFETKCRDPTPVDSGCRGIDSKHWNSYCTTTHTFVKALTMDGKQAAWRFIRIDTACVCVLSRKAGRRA
Procedure: Purified mouse/canine chimeric antibodies and caninized antibodies were analyzed for affinity to canine NGF using a Biacore T100 instrument. Goat anti Canine IgG (Southern Biotech) was immobilized at 5000-10000 RU on a CM5 chip using an amine coupling procedure according to the manufacturer's instructions (Biacore). […] The association rate was monitored for 5 min and the dissociation rate was monitored for 10-20 min. The chip surface was regenerated using 50-75 ul 10 mM glycine pH 1.5 at a flow rate of 50-100 ul/min. Data was analyzed using Biaevaluation T100 software version 2.0.2, software, GE Healthcare Life Sciences (Piscataway, N.J.). Overall affinity parameters established for mouse/canine chimeric antibodies is summarized in Table 22 and for caninized antibodies in Table 23. […] The overall KDs of the mouse/canine anti-NGF mAbs range from about 1300 pM to 1.6 pM. […] The overall KDs of the caninized anti-NGF mAbs range from about 42 pM to 1.2 pM.

[2] = target: recombinant canine β NGF (canine); assay: cell-based or functional assay
[3] = target: T1, recombinant canine β NGF; assay: cell-based or functional assay
[4] = target: T2, recombinant canine β NGF (canine, UniProt Q29074 110-229 (pig entry)); assay: cell-based or functional assay
T2 chain: T1 chain

[5] = target: T3, biotinylated rat β NGF (rat, UniProt P25427 122-241, limits assumed, biotinylated); assay: capture ELISA; supernatant 5-fold
T3 construct: also called Biotinylated Rat NGF; rat NGF
Procedure: (§1) The plates were washed three times with wash buffer. The plates were blocked with 200 μl of 2% milk and incubated for 1 hour at room temperature. The plates were washed as above. […] The positive control was crude sera (diluted 1:500 with PBS) isolated from a β NGF immunized mouse and the negative control was hybridoma supernatant derived from a mouse immunized with an antigen other than NGF. The plates were washed and then 50 μl of biotinylated human or rat β NGF at 50 ng/ml was added and incubated for 1 hour at room temperature. The plates were washed. […] The plates were incubated for 30 minutes at room temperature. The plates were washed and then TMB substrate (Invitrogen, catalog #00-2023) was added. The reaction was stopped using 2N H₂SO₄ (VWR, catalog # BDH3500-1). The absorbance at 450 nm was read on a Spectromax 2E plate reader (Molecular Devices); these absorbance readings are shown in Tables 1 and 2. The numerical value indicates binding of mouse anti-NGF antibodies to biotinylated human or rat β NGF.

[6] = target: T4, biotinylated human β NGF (human, UniProt P01138 122-241, biotinylated); assay: capture ELISA; supernatant 5-fold
T4 construct: also called Biotinylated Human NGF; human NGF
Procedure: as §1

[7] = target: T3, biotinylated rat β NGF; assay: capture ELISA; supernatant 125-fold
Procedure: as §1

[8] = target: T4, biotinylated human β NGF; assay: capture ELISA; supernatant 125-fold
Procedure: as §1

[9] = target: T3, biotinylated rat β NGF; assay: capture ELISA; supernatant 625-fold
Procedure: as §1

[10] = target: T4, biotinylated human β NGF; assay: capture ELISA; supernatant 625-fold
Procedure: as §1

[11] = target: T3, biotinylated rat β NGF; assay: capture ELISA; supernatant 25-fold
Procedure: as §1

[12] = target: T4, biotinylated human β NGF; assay: capture ELISA; supernatant 25-fold
Procedure: as §1

[13] = target: T1, recombinant canine β NGF; assay: SPR (Biacore), mAb captured on goat anti-mouse IgG Fc, canine NGF injected; Expt 1
Procedure: (§2) A biomolecular protein interaction analysis was used to evaluate the binding kinetics of the interaction between the purified anti-NGF hybridoma antibodies and recombinant canine β NGF. The antibodies were captured using a goat anti-mouse IgG FC (10000 RU) surface which was directly immobilized to a CM5 chip using an amine coupling procedure according to the manufacturer's instructions (Biacore). A sample size of 5 μl of antibody at a concentration of 1 μg/ml was captured at 10 μl minute. Recombinant canine NGF was used as the antigen. Canine NGF was injected at 75 μl/min (concentration range: 5-0.039 nM) for mouse antibodies. The association rate was monitored for 3.3 minutes and the dissociation rate was monitored for 10 minutes. Aliquots of canine NGF were also simultaneously injected over a reference reaction CM surface to record any nonspecific binding background. The instrument sensitivity for on-rate is I×IO⁷, such that any on-rate that is faster than I×IO⁷ may not be accurately measured; the instrument sensitivity for off-rate is […], such that any off-rate that is slower than 1×10⁻⁶ may not be accurately measured. Therefore, an on-rate that is faster than 1×10⁷ is recorded as >1×10⁷ and an off-rate that is slower than 1×10⁻⁶ is recorded as <1×10⁻⁶.

[14] = target: T1, recombinant canine β NGF; assay: SPR (Biacore), mAb captured on goat anti-mouse IgG Fc, canine NGF injected; Average
Procedure: as §2

[15] = target: T1, recombinant canine β NGF; assay: direct ELISA, canine NGF coated at 1 µg/ml, mAb at 0.4 µg/ml
Procedure: (§3) To determine if purified mouse anti-NGF mAbs bind to canine β NGF, ELISA plates were coated with 50 μl/well of canine NGF (Abbott Laboratories) at 1 μg/ml in PBS and incubated over night at 4° C. The plates were washed three times with PBS+Tween buffer. The plates were blocked with 200 μl/well of 2% milk in PBS for 1 hour at room temperature. The plates were washed three times as above. Purified antibodies were diluted to 0.4, 2, or 10 μg/ml. 50 μl of each concentration of purified antibody was added to the plates. The plates were incubated for 1 hour at room temperature. The plates were washed. 50 μl of a 5000-fold diluted goat anti-mouse IgG Fc-HRP (Thermo, catalog #31439) was added. The plates were incubated for 1 hour at room temperature. 50 μl of TMB (Invitrogen, catalog #00-2023) was added and the reaction was stopped using 2N H₂SO₄ (VWR, catalog # BDH3500-1). The absorbance at 450 nm was read on a Spectromax 2E plate reader (Molecular Devices). The results are shown in Table 9, and the numerical value indicates binding of mouse anti-NGF antibodies to canine β NGF.

[16] = target: human β NGF (R&D Systems catalog #256-GF/CF) (human, UniProt P01138 122-241); assay: cell-based or functional assay
[17] = target: T1, recombinant canine β NGF; assay: direct ELISA, canine NGF coated at 1 µg/ml, mAb at 2 µg/ml
Procedure: as §3

[18] = target: T1, recombinant canine β NGF; assay: SPR (Biacore), mAb captured on goat anti-mouse IgG Fc, canine NGF injected; Expt 2
Procedure: as §2

[19] = target: T1, recombinant canine β NGF; assay: cell-based or functional assay
[20] = target: T1, recombinant canine β NGF; assay: direct ELISA, canine NGF coated at 1 µg/ml, mAb at 10 µg/ml
Procedure: as §3

[21] = target: T1, recombinant canine β NGF; assay: cell-based or functional assay
[22] = target: T5, human β NGF (human, UniProt P01138 122-241, biotinylated in the TrkA inhibition ELISA (sites not given)); assay: cell-based or functional assay
[23] = target: T5, human β NGF; assay: TrkA inhibition ELISA; biotin-hNGF bound to rat TrkA/Fc; supernatant 25-fold
Procedure: (§4) The plates were washed three times with PBS/Tween. The plates were blocked with 200 μl/well of 2% milk in PBS for 1 hour at room temperature. The plates were washed three times as above. Rat TrkA/Fc chimera (R&D Systems, catalog #1056-TK) was added at 1 μg/ml (50 μl/well) in PBS/0.1% BSA and then incubated for 1 hour at room temperature. Biotinylated human NGF was titered and pre-incubated with anti-NGF antibody supernatants diluted 1-fold, 5-fold, and 25-fold, or purified anti-NGF mAbs diluted to 0.08, 0.4, 2, or 10 μg/ml for 1 hour at room temperature on a plate shaker. The negative control was unrelated conditioned supernatant. The positive control was sera from a mouse immunized with NGF. The plates were washed and then 50 μl of each biotinylated NGF/Ab mix was added to the appropriate wells. The plates were incubated for 1 hour at room temperature. The plates were washed. […] The plates were incubated for 30 min at room temperature. The plates were washed. 50 μl of TMB (Invitrogen, cat #00-2023) was added and the reaction was stopped using 2N H₂SO₄ (VWR, cat # BDH3500-1). The absorbance at 450 nm was read on a Spectromax 2E plate reader (Molecular Devices), and the absorbance readings are shown in Table 5 The numerical value indicates binding of biotinylated human β NGF to rat TrkA/Fc chimera.

[24] = target: T5, human β NGF; assay: TrkA inhibition ELISA; biotin-hNGF bound to rat TrkA/Fc; supernatant 1-fold
Procedure: as §4

[25] = target: T5, human β NGF; assay: TrkA inhibition ELISA; biotin-hNGF bound to rat TrkA/Fc; supernatant 5-fold
Procedure: as §4

T4 sequence (P01138 122-241 limits assumed): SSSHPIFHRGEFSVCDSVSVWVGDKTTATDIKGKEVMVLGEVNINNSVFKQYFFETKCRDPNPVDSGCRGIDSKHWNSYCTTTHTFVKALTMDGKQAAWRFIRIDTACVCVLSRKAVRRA
T5 sequence (P01138 122-241 limits assumed): as above
T3 sequence (P25427 122-241 limits assumed): as the sequence (P01138 122-241 limits assumed) above, with S3T, I6V, R9M, M37T, D60A, D65E, M92T, G94D, V117A, A120G counted along it
human β NGF (R&D Systems catalog #256-GF/CF), sequence (P01138 122-241 limits assumed): as the sequence (P01138 122-241 limits assumed) above

B1: Mu72 Canine IgG1/k Chimera (antibody, V domains shown)
VH: EVHLVESGGGLVKPGGFLILSCAASGFTFSDYYMFWIRQTPGKRLEWVATISDGGSYTYYTDNVKGRFTISRDNVKNNLYLQMSHLKSADTAMYYCARDWSDSEGFAYWGQGTLVTVSA
VL: DVLMTQTPLSLPVSLGDQASISCRSSQSIVQSNGNTYLEWYLQKPGQSPKLLIYKVSNRFSGVPDRFSGSGSGTDFTLKISRVEAEDLGVYYCFQGSHVPFTFGSGTKLEIKR
notes: also called PR-1290646; lot 1785614
For B1, the Kd [1] was 1.3 nM, the koff [1] was 0.0038 s⁻¹ and the TF-1 cell proliferation potency (70 pM canine NGF) [2] was < 50 pM. The “IC50, canine NGF-induced TF-1 cell proliferation (70 pM canine NGF)” value [3] was 0.041 nM.

B2: PR-1254972 (antibody, mouse IgG2b, V domains shown)
VH: B1 VH
VL: B1 VL
notes: also called 20B10; ML129-20B10.3F4
For B2, the “PathHunter IC50 (441 pM canine NGF)” value [4] was < 1 nM, the “SureFire cellular pERK IC50 (128 pM canine NGF)” value [4] was < 1 nM and the “absorbance at 450 nm” value [5] was 0.472. The “absorbance at 450 nm” value [6] was 1.1, the “absorbance at 450 nm” value [7] was 0.261 and the “absorbance at 450 nm” value [8] was 0.576. The “absorbance at 450 nm” value [9] was 0.108, the “absorbance at 450 nm” value [10] was 0.143 and the “absorbance at 450 nm” value [11] was 0.431. The “absorbance at 450 nm” value [12] was 0.997.

B3: PR-1254980 (antibody, mouse IgG1, V domains shown)
VH: EVQLQQSGAELVKPGASVKLSCTASGFNIKDTYIYWVKQRPEQGLEWIGRIDPANGNTIYASKFQGKATITADTSSNTAYMQLSSLTSGDTAVYYCAGYGYYAYWGQGTTLTVSS
VL: DVVLTQTPLSLPVNIGDQASISCKSTKSLLNGDGFTYLDWYLQKPGQSPQLLIYLVSNRFSGVPDRFSGSGSGTDFTLKISRVEAEDLGVYYCFESNYLFTFGSGTKLEMKR
notes: also called 23F1; ML129-23F1.4G3
With B3 the Kd [13] was < 0.0237 nM, the koff [13] was 0.000237 s⁻¹ and the kon [13] was > 1e+07 M⁻¹ s⁻¹. For the same binder, the Kd [14] was < 0.0231 nM, the koff [14] was 0.000231 s⁻¹ and the kon [14] was > 1e+07 M⁻¹ s⁻¹. The “absorbance at 450 nm” value [15] was 0.168 A450, the “PathHunter % of max signal, supernatant 100-fold” value [16] was 5% and the “absorbance at 450 nm” value [17] was 0.334 A450. The Kd [18] was < 0.0225 nM, the koff [18] was 0.000225 s⁻¹ and the kon [18] was > 1e+07 M⁻¹ s⁻¹. For the same binder, the “IC50, canine NGF-induced TF-1 cell proliferation (70 pM canine NGF)” value [19] was 0.343 nM, the “absorbance at 450 nm” value [20] was 0.491 A450 and the “PathHunter IC50 (441 pM canine NGF)” value [21] was 0.381 nM. For the same binder, the “SureFire pERK IC50 (128 pM canine β NGF)” value [21] was 0.0137 nM.

B4: 2B12 hybridoma supernatant (antibody, mouse IgG2b, V domains shown)
VH: QVQLQQPGAELVKPGASVKLSCKASGYTFTNYWMHWVKQRPGQGLEWIGRIDPYGGGTKHNEKFKRKATVTADKSSSTAYILLSSLTSEDSAVYYCTRSGYDYYFDVWGTGTTVTVSS
VL: DIQMTQSPASLSASVGETVTVTCRASENIYSFLAWHQQKQGKSPQLLVYNANTLAEGVPSRFSGSGSGTQFSLKINSLQPEDFGSYYCQHHFGTPFTFGSGTKLEIKR
notes: Tested as supernatant of the hybridoma before subcloning; mouse IgG2b kappa; also called ML129-2B12.5G9
In the case of B4, the “SureFire pERK, % of maximum signal; supernatant 1000-fold” value [22] is reported as 0%, the “absorbance at 450 nm” value [23] is reported as 0.095 OD450 and the “absorbance at 450 nm” value [24] is reported as 0.065 OD450. The “absorbance at 450 nm” value [25] was 0.07 OD450.
